The values that follow come from PMC12298160, “Integrated Transcriptomic and Proteomic Analyses Reveal CsrA-Mediated Regulation of Virulence and Metabolism in Vibrio alginolyticus”.

The data set addresses CsrA (6xHis-CsrA) (UniProt A0A2I3CA03 1-65). Description: EMSA; high affinity. The note with it: protein: recombinant; tags: 6xHis (named 6xHis-CsrA); chain copies: 2; label: biotin.

B1: rraA -64 to +36 RNA (ssRNA)
RNA: AAGGUAUAGAAAAGGAUACUGCUCACUGAAGCAACGCUUGGGUGAGAAAAUUCACGGAGGAAAUAUGAGAGACAUUACACCCGAUAUUUGUGACCAAUUU
Regarding B1, the binding result is on record as “binds”.
